Experiment [1] concerns the target T1, His6-TEV-MSP1D1 (CA15914) (human Apo A-I derived, engineered, biotinylated with EZ-link NHS-Biotin for the BLI experiment only).
T1 construct: Membrane scaffold protein; The entry holds the 6xHis tag, the TEV cleavage site and MSP1D1; Tested in Apo-state (lipid free) and in Nanodisc-state (POPC nanodisc, two MSP1D1 per nanodisc)
T1 chain: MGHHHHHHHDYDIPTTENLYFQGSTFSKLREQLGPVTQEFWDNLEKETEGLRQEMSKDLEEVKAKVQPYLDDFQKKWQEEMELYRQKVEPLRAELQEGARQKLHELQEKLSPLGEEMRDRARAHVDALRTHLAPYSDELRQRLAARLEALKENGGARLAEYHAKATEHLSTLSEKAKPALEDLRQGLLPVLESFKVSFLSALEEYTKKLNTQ
Nature of the experiment: ELISA, periplasmic extract on coated MSP (1 µg/mL in 100 µL, Apo- and Nanodisc-state), EPEA-tag detection, OD405 after 1 h.
Description: (§1) Nanobodies were detected after 1 h (FIG. 2A) and overnight (FIG. 2B) subsequent incubation with a biotinylated CaptureSelect antibody and developed with a Streptavidin Alkaline Phosphatase conjugate.

In experiment [2] the target is T2, His6-TEV-MSP2N2 (CA15915) (human Apo A-I derived, engineered, UniProt P02647 79-267, limits assumed).
T2 construct: Membrane scaffold protein; The entry holds the 6xHis tag, the TEV cleavage site and MSP2N2; Tested in Apo-state, in Nanodisc-state, and as the belt of nanodiscs loaded with GABAAR-β3
The experiment is described as above.
Description: as §1

For experiment [3], the target named is T1, His6-TEV-MSP1D1 (CA15914). Nature of the experiment: ELISA, purified MegaBody on coated MSP (Apo- or Nanodisc-state) vs non-coated wells, A405.
The target in experiment [4] is T2, His6-TEV-MSP2N2 (CA15915). Described as above.
The target of experiment [5] is T2, His6-TEV-MSP2N2 (CA15915). Nature of the experiment: ELISA, periplasmic extract on coated MSP (1 µg/mL in 100 µL, Apo- and Nanodisc-state), EPEA-tag detection, OD405 after overnight.
Description: as §1
For experiment [6], the target named is T1, His6-TEV-MSP1D1 (CA15914). The experiment is described as above.
Description: as §1

These results are taken from patent US20220380456A1 (UNITED KINGDOM RESEARCH AND INNOVATION, published 2022).

B1: MP1521_F3 Nanobody (CA15894) (VHH)
VHH: QVQLVESGGGLVQPGGSLRLSCAASGSGFGPNVMGWYRQAPGKRRELVATINRIGNINYGDSVKGRFTLSREIAVNTVYLQMNSLKPEDAANYYCYAAKYGVDYWGKGTQVTVSS
notes: Entry includes 6xHis and EPEA tags; tested as periplasmic extract; also called Nb F3
Consider B1, for which the binding result in experiment [1] and in experiment [2] was “binds” in each case.

B2: MbNbE1^c7HopQ MegaBody (CA15909) (other)
chain: QVQLVESGGGLVQTKTTTSVIDTTNDAQNLLTQAQTIVNTLKDYCPILIAKSSSSNGGTNNANTPSWQTAGGGKNSCATFGAEFSAASDMINNAQKIVQETQQLSANQPKNITQPHNLNLNSPSSLTALAQKMLKNAQSQAEILKLANQVESDFNKLSSGHLKDYIGKCDASAISSANMTMQNQKNNWGNGCAGVEETQSLLKTSAADFNNQTPQINQAQNLANTLIQELGNNTYEQLSRLLTNDNGTNSKTSAQAINQAVNNLNERAKTLAGGTTNSPAYQATLLALRSVLGLWNSMGYAVICGGYTKSPGENNQKDFHYTDENGNGTTINCGGSTNSNGTHSYNGTNTLKADKNVSLSIEQYEKIHEAYQILSKALKQAGLAPLNSKGEKLEAHVTTSKYGSLRLSCAASGTITRSPTMSWARQAPGRQREWVTSILGTGRTDYADSVKGRFTISRDNANNTVYLQMNNLKPEDSAVYYCYTVLNGRPSWGQGTQVTVSSHHHHHHEPEA
notes: MegaBody: c7HopQ scaffold inserted in the first β-turn of Nanobody MP1521_E1; Entry includes 6xHis and EPEA tags
Regarding B2, the “fold ELISA signal over no MSP” value in experiment [3] and in experiment [4] was ≥ 4 fold throughout.

B3: MP1521_H5 Nanobody (CA15890) (VHH)
VHH: QVQLVESGGGLVQPGGSLKLSCAASGFTFSTYSMSWVRQAPGKGLEWVSRILTDGGTTSYPDSVKGRFTISRDNAKNTLYLQMNNLKPEDTAVYYCARGWPSDGYSGGYRGQGTQVTVSS
notes: Entry includes 6xHis and EPEA tags; tested as periplasmic extract
Regarding B3, the binding result in experiment [1] and in experiment [2] was “binds” each time.

B4: MP1521_G9 Nanobody (CA15884) (VHH)
VHH: QVQLVESGGGSVQAGGSLRLSCAASGRTFSTYRMGWFRQAPGKEREFVAGWNSINIYYADSVKGRFTISGDNAKSTVYLQMNSLKPEDTAVYYCAARGLGQTEYNYWGQGTQVTVSS
notes: as for B3
Turning to B4, the binding result in experiment [5] and in experiment [1] was “binds” in each case.

B5: MP1522_B9 Nanobody (CA15888) (VHH)
VHH: QVQLVESGGGLVQAGGSLRLSCVRSARTFGSVAMGWFRQAPGKEREFVTAIDWSGSNTLYADSVKGRFTISRDNAKNTVYLQMNSLKPDDTAVYYCAASRRVVVTTSDFDSWGQGTQVTVSS
notes: as for B3
Take B5: the binding result in experiment [1] and in experiment [2] was “binds” in each case.

B6: MbNbB4^c7HopQ MegaBody (CA15907) (other)
chain: QVQLVESGGGLVQTKTTTSVIDTTNDAQNLLTQAQTIVNTLKDYCPILIAKSSSSNGGTNNANTPSWQTAGGGKNSCATFGAEFSAASDMINNAQKIVQETQQLSANQPKNITQPHNLNLNSPSSLTALAQKMLKNAQSQAEILKLANQVESDFNKLSSGHLKDYIGKCDASAISSANMTMQNQKNNWGNGCAGVEETQSLLKTSAADFNNQTPQINQAQNLANTLIQELGNNTYEQLSRLLTNDNGTNSKTSAQAINQAVNNLNERAKTLAGGTTNSPAYQATLLALRSVLGLWNSMGYAVICGGYTKSPGENNQKDFHYTDENGNGTTINCGGSTNSNGTHSYNGTNTLKADKNVSLSIEQYEKIHEAYQILSKALKQAGLAPLNSKGEKLEAHVTTSKYGSLRLSCAASKSFFNIYDLAWYRQAPGKQRELVASITKVGSTNYADSVKGRFTTSRDNAKKTVYLQMNSLKPEDTAVYYCNLVSPGGVYNYWGQGTQVTVSSHHHHHHEPEA
notes: MegaBody: c7HopQ scaffold inserted in the first β-turn of Nanobody MP1521_B4; Entry includes 6xHis and EPEA tags
In the case of B6, the “fold ELISA signal over no MSP” value in experiment [3] and in experiment [4] was ≥ 4 fold throughout.

B7: MP1521_E1 Nanobody (CA15896) (VHH)
VHH: QVQLVESGGGLVQPGGSLRLSCAASGTITRSPTMSWARQAPGRQREWVTSILGTGRTDYADSVKGRFTISRDNANNTVYLQMNNLKPEDSAVYYCYTVLNGRPSWGQGTQVTVSS
notes: as for B3
Take B7: the binding result in experiment [1] and in experiment [2] was “binds” each time.

B8: MP1522_A12 Nanobody (CA15885) (VHH)
VHH: QVQLVESGGGLVQAGGSLRLSCAASGRTFSSYNMAWFRQVPGKEREFVASIARTGSGTYYRDSVKGRFTISRDNAKNTVYLQMNSLKPQDTAVYYCTAGGSLATISDYWGQGTQVTVSS
notes: as for B3
Turning to B8, the binding result in experiment [6] and in experiment [5] was “binds” in each case.

B9: MP1521_B4 Nanobody (CA15893) (VHH)
VHH: QVQLVESGGGLVQPGGSLRLSCAASKSFFNIYDLAWYRQAPGKQRELVASITKVGSTNYADSVKGRFTTSRDNAKKTVYLQMNSLKPEDTAVYYCNLVSPGGVYNYWGQGTQVTVSS
notes: as for B3
For B9, the binding result in experiment [1] and in experiment [2] was “binds” each time.

B10: MP1522_B7 Nanobody (CA15886) (VHH)
VHH: QVQLVESGGGLVQAGGSLRLSCAASGRSFSSYGMGWFRQAPGKEREFAAGITGTAGITYYTDSVKGRFTISRDNAKNTVYLQMNNLKPEDTAVYYCAAGLTSYAGRGAAGYDYWGQGTQVTVSS
notes: as for B3
Regarding B10, the binding result in experiment [6] and in experiment [5] was “binds” each time.

B11: MbNbB1^c7HopQ MegaBody (CA15908) (other)
chain: QVQLVESGGGLVQTKTTTSVIDTTNDAQNLLTQAQTIVNTLKDYCPILIAKSSSSNGGTNNANTPSWQTAGGGKNSCATFGAEFSAASDMINNAQKIVQETQQLSANQPKNITQPHNLNLNSPSSLTALAQKMLKNAQSQAEILKLANQVESDFNKLSSGHLKDYIGKCDASAISSANMTMQNQKNNWGNGCAGVEETQSLLKTSAADFNNQTPQINQAQNLANTLIQELGNNTYEQLSRLLTNDNGTNSKTSAQAINQAVNNLNERAKTLAGGTTNSPAYQATLLALRSVLGLWNSMGYAVICGGYTKSPGENNQKDFHYTDENGNGTTINCGGSTNSNGTHSYNGTNTLKADKNVSLSIEQYEKIHEAYQILSKALKQAGLAPLNSKGEKLEAHVTTSKYGSLRLSCTASGFSLSSSYMDWVRQAPGKGIEWVSTISPGGRITYAVSVEGRFTLSRDNAKNTLSLQMNELKPEDTAVYYCRRLGEKGQGTQVTVSSHHHHHHEPEA
notes: MegaBody: c7HopQ scaffold inserted in the first β-turn of Nanobody MP1521_B1; Entry includes 6xHis and EPEA tags
On to B11, for which the “fold ELISA signal over no MSP” value in experiment [3] and in experiment [4] was ≥ 4 fold throughout.

B12: MP1521_B1 Nanobody (CA15895) (VHH)
VHH: QVQLVESGGGLVQPGGSLRLSCTASGFSLSSSYMDWVRQAPGKGIEWVSTISPGGRITYAVSVEGRFTLSRDNAKNTLSLQMNELKPEDTAVYYCRRLGEKGQGTQVTVSS
notes: as for B3
For B12, the binding result in experiment [1] and in experiment [2] was “binds” throughout.

B13: MP1522_C10 Nanobody (CA15891) (VHH)
VHH: QVQLVESGGGLVQAGGSLRLACAASGRTSGSYAIGWFRQAPGKEREFAAAISFTAGVTYYSNSVKGRFTISRDSAKNTAYLQMNTLKPEDTAVYYCATLPSLVLILTAKPNIGYWGQGTQVTVSS
notes: as for B3
Regarding B13, the binding result in experiment [1] and in experiment [2] was “binds” each time.

B14: MP1521_B9 Nanobody (CA15883) (VHH)
VHH: QVQLVESGGGLVQAGGSLRLSCAASGRTLCSIPMGWFRQAPGKEREFVAAIRWSGGSTYYADSVKGRFSISKDNAKNTVYLQMNNLKPEDTATYYCASAAPYSSWSRGLEYDYWGQGTQVTVSS
notes: as for B3
On to B14, for which the binding result in experiment [1] and in experiment [2] was “binds” each time.

B15: MP1522_A5 Nanobody (CA15892) (VHH)
VHH: QVQLVESGGGLVQPGGSLRLSCAASGFAFSNSYMSWVRQAPGKGPEWVSSISPSAWIITHGDSVKGRFTISRDNAKNTLYLQMNHLKPEDAALYYCARRQGYDGYVPSRDYWGQGTQVTVSS
notes: as for B3
As for B15, the binding result in experiment [1] and in experiment [2] was “binds” each time.

B16: MP1521_E4 Nanobody (CA15889) (VHH)
VHH: QVQLVESGGGLVQAGGSLRLSCAASGRTFGSTFMGWFRQAPGKERDFVASITWNRGLTTYADSVKGRFTISRDSAKNTVDLQMNNLKPEDTAVYYCVLGMGTSFASWGQGTQVTVSS
notes: as for B3
With B16, the binding result in experiment [1] and in experiment [2] was “binds” throughout.
